Results published in publication doi:10.1101/2024.02.09.579451.

Target: T1, human Kir2.1 channel, wild type (Kir2.1-WT) (human), P63252
T1 chain: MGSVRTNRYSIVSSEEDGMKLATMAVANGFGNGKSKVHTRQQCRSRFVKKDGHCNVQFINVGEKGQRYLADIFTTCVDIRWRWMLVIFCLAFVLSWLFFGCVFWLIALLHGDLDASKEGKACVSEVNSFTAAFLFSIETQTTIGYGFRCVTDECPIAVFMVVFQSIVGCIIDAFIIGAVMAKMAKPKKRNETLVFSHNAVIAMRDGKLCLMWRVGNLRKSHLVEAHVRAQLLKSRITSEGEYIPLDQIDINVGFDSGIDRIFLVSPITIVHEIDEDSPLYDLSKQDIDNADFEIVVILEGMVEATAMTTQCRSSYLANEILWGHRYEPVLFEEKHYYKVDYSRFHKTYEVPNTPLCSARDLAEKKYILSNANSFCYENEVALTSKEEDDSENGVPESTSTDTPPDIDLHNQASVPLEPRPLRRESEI
Assay: SEC-MALLS
Conditions: remark: other sources report otherwise

B1: human Kir2.1 channel, wild type (Kir2.1-WT), P63252 1-427 (natural protein)
chain: MGSVRTNRYSIVSSEEDGMKLATMAVANGFGNGKSKVHTRQQCRSRFVKKDGHCNVQFINVGEKGQRYLADIFTTCVDIRWRWMLVIFCLAFVLSWLFFGCVFWLIALLHGDLDASKEGKACVSEVNSFTAAFLFSIETQTTIGYGFRCVTDECPIAVFMVVFQSIVGCIIDAFIIGAVMAKMAKPKKRNETLVFSHNAVIAMRDGKLCLMWRVGNLRKSHLVEAHVRAQLLKSRITSEGEYIPLDQIDINVGFDSGIDRIFLVSPITIVHEIDEDSPLYDLSKQDIDNADFEIVVILEGMVEATAMTTQCRSSYLANEILWGHRYEPVLFEEKHYYKVDYSRFHKTYEVPNTPLCSARDLAEKKYILSNANSFCYENEVALTSKEEDDSENGVPESTSTDTPPDIDLHNQASVPLEPRPLRRESEI
stoichiometry N: 4
